From article PMC9352680, “A comprehensive thermodynamic model for RNA binding by the Saccharomyces cerevisiae Pumilio protein PUF4”

T1: PUF4 RNA-binding domain (Saccharomyces cerevisiae, UniProt P25339 537-888)
T1 sequence: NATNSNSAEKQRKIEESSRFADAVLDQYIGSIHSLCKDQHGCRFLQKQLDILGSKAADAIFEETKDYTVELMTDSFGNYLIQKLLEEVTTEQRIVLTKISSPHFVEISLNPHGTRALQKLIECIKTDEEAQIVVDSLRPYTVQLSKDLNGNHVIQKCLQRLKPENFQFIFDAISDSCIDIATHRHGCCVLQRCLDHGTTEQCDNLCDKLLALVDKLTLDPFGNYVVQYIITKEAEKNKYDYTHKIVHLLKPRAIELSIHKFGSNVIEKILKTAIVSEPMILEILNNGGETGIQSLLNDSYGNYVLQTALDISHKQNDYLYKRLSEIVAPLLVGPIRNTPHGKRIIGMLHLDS


Target: T1, PUF4 RNA-binding domain
Assay: Mg; RNA-MaP; 20 mM Na-HEPES pH 7.4, 30 mM KOAc, 0.75 mM MgCl2, 0.1% Tween-20, 5% glycerol, 0.1 mg/mL BSA, 2 mM DTT; 25 C; 0.0125-409.6 nM protein
Details: tags: N-His6-TEV cleaved; C-SNAP kept, Cy3B-labelled; label: tethered on chip by stalled RNA polymerase

| Binder | Kd |
| --- | --- |
| Ie_S4_P5E.1_K5.1_C5.1_H5.1_[+1CTT]_A5.1_F5.1_T5.1 (ssRNA) RNA: UUUGACAACUGAUCGUUCUUUCUUCUUGUAUUAUUAUUCUUUCUCGAUCAGUUGUCUUU | 1.38 nM |
| Ie_S4_P5E.1_K5.1_C5.1_H5.1_[+4TCC]_A5.1_F5.1_T5.1 (ssRNA) RNA: UUUGACAACUGAUCGUUCUUUCUUGUAUCCUUAUUAUUCUUUCUCGAUCAGUUGUCUUU | 6.26 nM |
| Ie_S4_P5E.1_K5.1_C5.1_H5.1_A5.1_[+5TTT]_F5.1_T5.1 (ssRNA) RNA: UUUGACAACUGAUCGUUCUUUCUUGUAUUUUUAUUAUUCUUUCUCGAUCAGUUGUCUUU | 2.85 nM |
| Ie_S4_P5E.1_K5.1_C5.1_H5.1_[+2TCC]_A5.1_F5.1_T5.1 (ssRNA) RNA: UUUGACAACUGAUCGUUCUUUCUUGUCCUAUUAUUAUUCUUUCUCGAUCAGUUGUCUUU | 18.4 nM |
| Ie_S4_P5E.1_K5.1_C5.1_H5.1_[+2TCT]_A5.1_F5.1_T5.1 (ssRNA) RNA: UUUGACAACUGAUCGUUCUUUCUUGUCUUAUUAUUAUUCUUUCUCGAUCAGUUGUCUUU | 15.3 nM |
| Ie_S4_P5E.1_K5.1_C5.1_H5.1_A5.1_[+6CCC]_F5.1_T5.1 (ssRNA) RNA: UUUGACAACUGAUCGUUCUUUCUUGUAUUCCCAUUAUUCUUUCUCGAUCAGUUGUCUUU | 60.8 nM |
| Ie_S4_P5E.1_K5.1_C5.1_H5.1_[+4CTC]_A5.1_F5.1_T5.1 (ssRNA) RNA: UUUGACAACUGAUCGUUCUUUCUUGUACUCUUAUUAUUCUUUCUCGAUCAGUUGUCUUU | 2.91 nM |
| Ie_S4_P5E.1_K5.1_C5.1_H5.1_[+3TCT]_A5.1_F5.1_T5.1 (ssRNA) RNA: UUUGACAACUGAUCGUUCUUUCUUGUUCUAUUAUUAUUCUUUCUCGAUCAGUUGUCUUU | 8.87 nM |
| Ie_S4_P5E.1_K5.1_C5.1_H5.1_[+3TTT]_A5.1_F5.1_T5.1 (ssRNA) RNA: UUUGACAACUGAUCGUUCUUUCUUGUUUUAUUAUUAUUCUUUCUCGAUCAGUUGUCUUU | 15.6 nM |
| Ie_S4_P5E.1_K5.1_C5.1_H5.1_[+4CTT]_A5.1_F5.1_T5.1 (ssRNA) RNA: UUUGACAACUGAUCGUUCUUUCUUGUACUUUUAUUAUUCUUUCUCGAUCAGUUGUCUUU | 1.26 nM |
| Ie_S4_P5E.1_K5.1_C5.1_H5.1_[+4CCC]_A5.1_F5.1_T5.1 (ssRNA) RNA: UUUGACAACUGAUCGUUCUUUCUUGUACCCUUAUUAUUCUUUCUCGAUCAGUUGUCUUU | 3.18 nM |
| Ie_S4_P5E.1_K5.1_C5.1_H5.1_A5.1_[+7CCT]_F5.1_T5.1 (ssRNA) RNA: UUUGACAACUGAUCGUUCUUUCUUGUAUUACCUUUAUUCUUUCUCGAUCAGUUGUCUUU | 66.5 nM |
| Ie_S4_P5E.1_K5.1_C5.1_H5.1_[+3TCC]_A5.1_F5.1_T5.1 (ssRNA) RNA: UUUGACAACUGAUCGUUCUUUCUUGUUCCAUUAUUAUUCUUUCUCGAUCAGUUGUCUUU | 9.83 nM |
| Ie_S4_P5E.1_K5.1_C5.1_H5.1_A5.1_[+6TTC]_F5.1_T5.1 (ssRNA) RNA: UUUGACAACUGAUCGUUCUUUCUUGUAUUUUCAUUAUUCUUUCUCGAUCAGUUGUCUUU | 32 nM |
| Ie_S4_P5E.1_K5.1_C5.1_H5.1_[+3CCC]_A5.1_F5.1_T5.1 (ssRNA) RNA: UUUGACAACUGAUCGUUCUUUCUUGUCCCAUUAUUAUUCUUUCUCGAUCAGUUGUCUUU | 27.8 nM |
| Ie_S4_P5E.1_K5.1_C5.1_H5.1_A5.1_[+7CCC]_F5.1_T5.1 (ssRNA) RNA: UUUGACAACUGAUCGUUCUUUCUUGUAUUACCCUUAUUCUUUCUCGAUCAGUUGUCUUU | 85 nM |
| Ie_S4_P5E.1_K5.1_C5.1_H5.1_[+3T]_A5.1_F5.1_T5.1 (ssRNA) RNA: UUUGACAACUGAUCGUUCUUUCUUGUUAUUAUUAUUCUUUCUCGAUCAGUUGUCUUU | 41.6 nM |
| Ie_S4_P5E.1_K5.1_C5.1_H5.1_[+3C]_A5.1_F5.1_T5.1 (ssRNA) RNA: UUUGACAACUGAUCGUUCUUUCUUGUCAUUAUUAUUCUUUCUCGAUCAGUUGUCUUU | 34.1 nM |
| Ie_S4_P5E.1_K5.1_C5.1_H5.1_A5.1_[+6C]_F5.1_T5.1 (ssRNA) RNA: UUUGACAACUGAUCGUUCUUUCUUGUAUUCAUUAUUCUUUCUCGAUCAGUUGUCUUU | 13.4 nM |
| Ie_S4_P5E.1_K5.1_C5.1_H5.1_[+1CCCT]_A5.1_F5.1_T5.1 (ssRNA) RNA: UUUGACAACUGAUCGUUCUUUCUUCCCUGUAUUAUUAUUCUUUCUCGAUCAGUUGUCUUU | 1.21 nM |
| Ie_S4_P5E.1_K5.1_C5.1_H5.1_[+2CCTC]_A5.1_F5.1_T5.1 (ssRNA) RNA: UUUGACAACUGAUCGUUCUUUCUUGCCUCUAUUAUUAUUCUUUCUCGAUCAGUUGUCUUU | 863 nM |
| Ie_S4_P5E.1_K5.1_C5.1_H5.1_[+3TCTC]_A5.1_F5.1_T5.1 (ssRNA) RNA: UUUGACAACUGAUCGUUCUUUCUUGUUCUCAUUAUUAUUCUUUCUCGAUCAGUUGUCUUU | 40.3 nM |
| Ie_S4_P5E.1_K5.1_C5.1_H5.1_[+4CCTC]_A5.1_F5.1_T5.1 (ssRNA) RNA: UUUGACAACUGAUCGUUCUUUCUUGUACCUCUUAUUAUUCUUUCUCGAUCAGUUGUCUUU | 7.54 nM |

| Binder | Kd |
| --- | --- |
| Ie_S4_P5E.1_K5.1_C5.1_H5.1_[+3TTCC]_A5.1_F5.1_T5.1 (ssRNA) RNA: UUUGACAACUGAUCGUUCUUUCUUGUUUCCAUUAUUAUUCUUUCUCGAUCAGUUGUCUUU | 44.8 nM |
| Ie_S4_P5E.1_K5.1_C5.1_H5.1_[+3CTCT]_A5.1_F5.1_T5.1 (ssRNA) RNA: UUUGACAACUGAUCGUUCUUUCUUGUCUCUAUUAUUAUUCUUUCUCGAUCAGUUGUCUUU | 56.3 nM |
| Ie_S4_P5E.1_K5.1_C5.1_H5.1_[+4CCCT]_A5.1_F5.1_T5.1 (ssRNA) RNA: UUUGACAACUGAUCGUUCUUUCUUGUACCCUUUAUUAUUCUUUCUCGAUCAGUUGUCUUU | 6.05 nM |
| Ie_S4_P5E.1_K5.1_C5.1_H5.1_[+4TTCC]_A5.1_F5.1_T5.1 (ssRNA) RNA: UUUGACAACUGAUCGUUCUUUCUUGUAUUCCUUAUUAUUCUUUCUCGAUCAGUUGUCUUU | 9.55 nM |
| Ie_S4_P5E.1_K5.1_C5.1_H5.1_A5.1_[+5CCCT]_F5.1_T5.1 (ssRNA) RNA: UUUGACAACUGAUCGUUCUUUCUUGUAUCCCUUAUUAUUCUUUCUCGAUCAGUUGUCUUU | 16 nM |
| Ie_S4_P5E.1_K5.1_C5.1_H5.1_[+2TTCC]_A5.1_F5.1_T5.1 (ssRNA) RNA: UUUGACAACUGAUCGUUCUUUCUUGUUCCUAUUAUUAUUCUUUCUCGAUCAGUUGUCUUU | 26.4 nM |
| Ie_S4_P5E.1_K5.1_C5.1_H5.1_A5.1_[+6TTCC]_F5.1_T5.1 (ssRNA) RNA: UUUGACAACUGAUCGUUCUUUCUUGUAUUUUCCAUUAUUCUUUCUCGAUCAGUUGUCUUU | 19.2 nM |
| Ib_S2_P3E.1_K3.1_C3.1_H3.1_[A4T]_A3.1_[T5A]_F3.1_T3.1 (ssRNA) RNA: UUUGAUUAAUAUGAUAUCGUUCUUUCUUGUUAAUAUUCUUUCUCGAUAUCAUAUUAAUCUUU | 670 nM |
| Ib_S2_P3E.1_K3.1_C3.1_H3.1_[A4G]_A3.1_[A6C]_F3.1_T3.1 (ssRNA) RNA: UUUGAUUAAUAUGAUAUCGUUCUUUCUUGUGUCUAUUCUUUCUCGAUAUCAUAUUAAUCUUU | 107 nM |
| Ib_S2_P3E.1_K3.1_C3.1_H3.1_[A4G]_A3.1_[A6T]_F3.1_T3.1 (ssRNA) RNA: UUUGAUUAAUAUGAUAUCGUUCUUUCUUGUGUUUAUUCUUUCUCGAUAUCAUAUUAAUCUUU | 37 nM |
| Ib_S2_P3E.1_K3.1_C3.1_H3.1_[A4C]_A3.1_[A6G]_F3.1_T3.1 (ssRNA) RNA: UUUGAUUAAUAUGAUAUCGUUCUUUCUUGUCUGUAUUCUUUCUCGAUAUCAUAUUAAUCUUU | 40.8 nM |
| Ie_S4_P5E.1_K5.1_C5.1_H5.1_[+3CCCTT]_A5.1_F5.1_T5.1 (ssRNA) RNA: UUUGACAACUGAUCGUUCUUUCUUGUCCCUUAUUAUUAUUCUUUCUCGAUCAGUUGUCUUU | 54.8 nM |
| Ie_S4_P5E.1_K5.1_C5.1_H5.1_A5.1_[+5CTCTC]_F5.1_T5.1 (ssRNA) RNA: UUUGACAACUGAUCGUUCUUUCUUGUAUCUCUCUAUUAUUCUUUCUCGAUCAGUUGUCUUU | 13.3 nM |
| Ie_S4_P5E.1_K5.1_C5.1_H5.1_A5.1_[+5TCTCT]_F5.1_T5.1 (ssRNA) RNA: UUUGACAACUGAUCGUUCUUUCUUGUAUUCUCUUAUUAUUCUUUCUCGAUCAGUUGUCUUU | 14.2 nM |
| Ie_S4_P5E.1_K5.1_C5.1_H5.1_A5.1_[+5CCCTT]_F5.1_T5.1 (ssRNA) RNA: UUUGACAACUGAUCGUUCUUUCUUGUAUCCCUUUAUUAUUCUUUCUCGAUCAGUUGUCUUU | 20.8 nM |
| Ie_S4_P5E.1_K5.1_C5.1_H5.1_[+4CCCTT]_A5.1_F5.1_T5.1 (ssRNA) RNA: UUUGACAACUGAUCGUUCUUUCUUGUACCCUUUUAUUAUUCUUUCUCGAUCAGUUGUCUUU | 9.87 nM |
| Ie_S4_P5E.1_K5.1_C5.1_H5.1_A5.1_[+6CTCTC]_F5.1_T5.1 (ssRNA) RNA: UUUGACAACUGAUCGUUCUUUCUUGUAUUCUCUCAUUAUUCUUUCUCGAUCAGUUGUCUUU | 43.6 nM |
| Ie_S4_P5E.1_K5.1_C5.1_H5.1_[+4TTCCT]_A5.1_F5.1_T5.1 (ssRNA) RNA: UUUGACAACUGAUCGUUCUUUCUUGUAUUCCUUUAUUAUUCUUUCUCGAUCAGUUGUCUUU | 16.5 nM |
| Ie_S4_P5E.1_K5.1_C5.1_H5.1_[+3CT]_A5.1_F5.1_T5.1 (ssRNA) RNA: UUUGACAACUGAUCGUUCUUUCUUGUCUAUUAUUAUUCUUUCUCGAUCAGUUGUCUUU | 10.9 nM |
| Ie_S4_P5E.1_K5.1_C5.1_H5.1_[+3TT]_A5.1_F5.1_T5.1 (ssRNA) RNA: UUUGACAACUGAUCGUUCUUUCUUGUUUAUUAUUAUUCUUUCUCGAUCAGUUGUCUUU | 8.89 nM |
| Ie_S4_P5E.1_K5.1_C5.1_H5.1_[+4CC]_A5.1_F5.1_T5.1 (ssRNA) RNA: UUUGACAACUGAUCGUUCUUUCUUGUACCUUAUUAUUCUUUCUCGAUCAGUUGUCUUU | 1.43 nM |
| Ie_S4_P5E.1_K5.1_C5.1_H5.1_[+4CT]_A5.1_F5.1_T5.1 (ssRNA) RNA: UUUGACAACUGAUCGUUCUUUCUUGUACUUUAUUAUUCUUUCUCGAUCAGUUGUCUUU | 0.642 nM |
| Ie_S4_P5E.1_K5.1_C5.1_H5.1_[+3TC]_A5.1_F5.1_T5.1 (ssRNA) RNA: UUUGACAACUGAUCGUUCUUUCUUGUUCAUUAUUAUUCUUUCUCGAUCAGUUGUCUUU | 2.68 nM |
